US20210389324

Key:
[1] = system: CFP-FOXP3-YFP (18-residue)
[2] = system: CFP-FOXP3-YFP (25-residue)
[3] = system: CFP-MYH6/7-YFP (16-residue)
[4] = system: CFP-MYH6/7-YFP (23-residue)
[5] = system: CFP-PROS1-YFP
[6] = system: CFP-SFVp12-YFP 11:6
[7] = system: CFP-SFVp12-YFP 19:6
[8] = system: CFP-TRIM14-YFP 19-residue substrate
[9] = system: CFP-TRIM14-YFP 22-residue substrate
[10] = system: CFP-V34-YFP
[11] = system: CFP-VEEVnsP23-YFP

Substance | cleavage of CFP-YFP substrate [1] | cleavage of CFP-YFP substrate [2] | cleavage of CFP-YFP substrate [3] | cleavage of CFP-YFP substrate [4] | cleavage of CFP-YFP substrate [5] | cleavage of CFP-YFP substrate [6] | cleavage of CFP-YFP substrate [7] | Km [8] [µM] | Vmax [8] [U/mg] | cleavage of CFP-YFP substrate [8] | Km [9] [µM] | Vmax [9] [U/mg] | cleavage of CFP-YFP substrate [9] | Km [10] [µM] | Vmax [10] [U/mg] | cleavage of CFP-YFP substrate [10] | cleavage of CFP-YFP substrate [11]
Recombinant MERS-CoV-2 Papain-like Protease | SARS-CoV-2, MERS PLpro | SARS-CoV-2, MERS PLpro | SARS-CoV-2, MERS PLpro | SARS-CoV-2, MERS PLpro | SARS-CoV-2, MERS PLpro | – | – | – | – | – | – | – | – | – | – | – | –
Recombinant VEEV nsP2-thioredoxin Protease containing residues 457-792 | – | – | – | – | – | CHIKV and VEEV nsP2 cysteine protease | CHIKV and VEEV nsP2 cysteine protease | 50 | 0.012 | VEEV nsP2 cysteine protease | 26 | 0.008 | VEEV nsP2 cysteine protease | 21 | 0.089 | VEEV nsP2 cysteine protease | VEEV nsP2 cysteine protease
